Experimental data published in article PMC6591306.
Each block holds one substance with its values, some of them ahead of it.

Experiments:
Experiment in all cases: cysteine cross-linking, non-reducing SDS-PAGE, quantification of fluorescent blots
GB2^5.41 = details: + CuP; cell surface SNAP-GB1 labelled with fluorescent SNAP substrate; no ligand; parent: est. 2; read off a plot
[1] = target: GB1 double cysteine mutant with one cysteine in TM4 and one in TM7 (co-expressed with a non-mutated GB2); details: + CuP, co-expressed with GB2Ctr, parent: est. 2, read off a plot
[2] = target: GB2 L711C^6.59 (in GB2^Ctr) (UniProt O88871); details: + CuP; cell surface SNAP-GB1 labelled with fluorescent SNAP substrate; no ligand; parent: est. 2; read off a plot
GB1 1.45/6.55 = details: + CuP, co-expressed with GB2Ctr, parent: est. 2, read off a plot
[3] = target: double mutant of GB1 carrying one cysteine in TM5 (I771C^5.42) and one in TM7 (L838C^7.34); details: + CuP, co-expressed with GB2Ctr, parent: est. 2, read off a plot
[4] = target: GB2^5.42 (cysteine mutant of GB2^Ctr at position 5.42) (UniProt O88871); details: + CuP; cell surface SNAP-GB1 labelled with fluorescent SNAP substrate; no ligand; parent: est. 2; read off a plot
GB2^6.54 = details: + CuP; cell surface SNAP-GB1 labelled with fluorescent SNAP substrate; no ligand; parent: est. 2; read off a plot
GB2^5.45 = details: + CuP; cell surface SNAP-GB1 labelled with fluorescent SNAP substrate; no ligand; parent: est. 2; read off a plot
[5] = target: GB1 double cysteine mutant with one cysteine in TM4 and one in TM1 (co-expressed with a non-mutated GB2); details: + CuP, co-expressed with GB2Ctr, parent: est. 2, read off a plot
GB2^6.55 = details: + CuP; cell surface SNAP-GB1 labelled with fluorescent SNAP substrate; no ligand; parent: est. 2; read off a plot
[6] = target: GB1 double cysteine mutant with one cysteine in TM5 and one in TM1 (co-expressed with a non-mutated GB2); details: + CuP, co-expressed with GB2Ctr, parent: est. 2, read off a plot
GB2^5.40 = details: + CuP; cell surface SNAP-GB1 labelled with fluorescent SNAP substrate; no ligand; parent: est. 2; read off a plot
GB1 4.52/6.55 = details: + CuP, co-expressed with GB2Ctr, parent: est. 2, read off a plot

- other: Change of GB1-GB2 dimer cross-linking (%) (GB2^5.41): 28%
Substance: m1; m2 GB1:5.41 Cys; GB2:5.41 Cys

- other: Oligomer (% total GB1) ([1]; + GABA 100 μM): 12 % total GB1
- other: Oligomer (% total GB1) ([1]; no agonist): 7 % total GB1
Substance: GB1^Ctr (control GABAB1 subunit: SNAP-tagged rat GB1a truncated in the C-terminal region) 4.52 Cys; L838C

- other: Change of GB1-GB2 dimer cross-linking (%) [2]: 28%
Substance: m1; m2 GB1:I824C; GB2:L711C

- other: Oligomer (% total GB1) (GB1 1.45/6.55; + GABA 100 μM): 4 % total GB1
- other: Oligomer (% total GB1) (GB1 1.45/6.55; no agonist): 2.5 % total GB1
Substance: GB1^Ctr (control GABAB1 subunit: SNAP-tagged rat GB1a truncated in the C-terminal region) 1.45 Cys; 6.55 Cys

- other: Oligomer (% total GB1) ([3]; + GABA 100 μM): 2.5 % total GB1
- other: Oligomer (% total GB1) ([3]; no agonist): 1 % total GB1
Substance: GB1^Ctr (control GABAB1 subunit: SNAP-tagged rat GB1a truncated in the C-terminal region) I771C; L838C

- other: Change of GB1-GB2 dimer cross-linking (%) [4]: 14%
Substance: m1; m2 GB1:I771C; GB2:5.42 Cys

- other: Change of GB1-GB2 dimer cross-linking (%) (GB2^6.54): 23%
Substance: m1; m2 GB1:6.54 Cys; GB2:6.54 Cys

- other: Change of GB1-GB2 dimer cross-linking (%) (GB2^5.45): 24%
Substance: m1; m2 GB1:5.45 Cys; GB2:5.45 Cys

- other: Oligomer (% total GB1) ([5]; + GABA 100 μM): 32 % total GB1
- other: Oligomer (% total GB1) ([5]; no agonist): 24 % total GB1
Substance: GB1^Ctr (control GABAB1 subunit: SNAP-tagged rat GB1a truncated in the C-terminal region) 1.45 Cys; 4.52 Cys

- other: Change of GB1-GB2 dimer cross-linking (%) (GB2^6.55): 32%
Substance: m1; m2 GB1:6.55 Cys; GB2:6.55 Cys

- other: Oligomer (% total GB1) ([6]; + GABA 100 μM): 12 % total GB1
- other: Oligomer (% total GB1) ([6]; no agonist): 5 % total GB1
Substance: GB1^Ctr (control GABAB1 subunit: SNAP-tagged rat GB1a truncated in the C-terminal region) 1.45 Cys; I771C

- other: Change of GB1-GB2 dimer cross-linking (%) (GB2^5.40): 12%
Substance: m1; m2 GB1:5.40 Cys; GB2:5.40 Cys

- other: Oligomer (% total GB1) (GB1 4.52/6.55; + GABA 100 μM): 21 % total GB1
- other: Oligomer (% total GB1) (GB1 4.52/6.55; no agonist): 16 % total GB1
Substance: GB1^Ctr (control GABAB1 subunit: SNAP-tagged rat GB1a truncated in the C-terminal region) 4.52 Cys; 6.55 Cys
